The source of these data is patent publication US20230051715A1 (MABWELL THERAPEUTICS, published 2023).

For assay [1], the target named is T1, full-length human C1s (produced in house) (human, UniProt P09871 16-688).
T1 construct: Called full-length; Partly auto-cleaved at R422-I423 on blots; also called HuC1s; Hu C1s
T1 sequence: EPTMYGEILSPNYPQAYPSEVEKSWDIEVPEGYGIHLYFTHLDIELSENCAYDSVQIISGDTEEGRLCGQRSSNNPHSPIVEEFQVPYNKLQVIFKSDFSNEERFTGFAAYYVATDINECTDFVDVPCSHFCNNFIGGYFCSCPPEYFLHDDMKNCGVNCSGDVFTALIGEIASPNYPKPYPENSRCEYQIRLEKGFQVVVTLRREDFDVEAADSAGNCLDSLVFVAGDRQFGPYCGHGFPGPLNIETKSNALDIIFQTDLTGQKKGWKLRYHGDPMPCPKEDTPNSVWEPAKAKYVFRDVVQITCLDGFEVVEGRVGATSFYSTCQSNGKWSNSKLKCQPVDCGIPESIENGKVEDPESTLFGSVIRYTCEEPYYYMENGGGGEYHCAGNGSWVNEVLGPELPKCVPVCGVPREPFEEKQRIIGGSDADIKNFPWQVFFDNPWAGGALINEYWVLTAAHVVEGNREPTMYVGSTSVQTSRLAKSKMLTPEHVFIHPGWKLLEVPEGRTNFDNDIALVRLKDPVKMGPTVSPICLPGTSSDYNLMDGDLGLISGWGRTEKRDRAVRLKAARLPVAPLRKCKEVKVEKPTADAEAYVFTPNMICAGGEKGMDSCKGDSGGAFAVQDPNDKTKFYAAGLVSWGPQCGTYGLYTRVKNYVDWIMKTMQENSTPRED
Nature of the assay: ELISA, plate coated with 200 ng/well full-length HuC1s, OD450nm. On the procedure: (§1) ELISA was carried out by first coating 96-well plates with 200 ng/well of full-length or truncated C1s proteins overnight. The next morning, plates were blocked with SuperBlock T20 blocking buffer (Thermo Scientific 37536) for 1 h with gentle shaking. Then, various concentrations of anti-C1s antibodies diluted in SuperBlock T20 blocking buffer were added to the plates and incubated for 1 h with gentle shaking. Mouse IgG (Sigma-Aldrich 15381) and human IgG1 (BioXCell BP0297) were used as negative controls. The plates were washed before incubating with HRP conjugated secondary antibodies diluted in SuperBlock T20 blocking buffer (goat anti-mouse IgG (H+L) cross-adsorbed secondary antibody HRP (Invitrogen G-21040) or goat anti-human IgG antibody, HRP conjugate (Millipore AP309P)) for 1 h with gentle shaking. At last, the plates were washed and color developed with ELISA liquid HRP substrate (Sigma-Aldrich), followed by stopping the reaction with addition of 1M H₂SO₄ in the same volume as the ELISA liquid substrate. Bound antibody was measured by absorbance at OD₄₅₀ₙₘ.

Assay [2] deals with T2, human C1s deletion mutant 2 (NHC) (human, UniProt P09871 16-437).
T2 construct: C-terminal 6xHis tag; also called HuC1s(NHC); huC1sNHC
T2 sequence: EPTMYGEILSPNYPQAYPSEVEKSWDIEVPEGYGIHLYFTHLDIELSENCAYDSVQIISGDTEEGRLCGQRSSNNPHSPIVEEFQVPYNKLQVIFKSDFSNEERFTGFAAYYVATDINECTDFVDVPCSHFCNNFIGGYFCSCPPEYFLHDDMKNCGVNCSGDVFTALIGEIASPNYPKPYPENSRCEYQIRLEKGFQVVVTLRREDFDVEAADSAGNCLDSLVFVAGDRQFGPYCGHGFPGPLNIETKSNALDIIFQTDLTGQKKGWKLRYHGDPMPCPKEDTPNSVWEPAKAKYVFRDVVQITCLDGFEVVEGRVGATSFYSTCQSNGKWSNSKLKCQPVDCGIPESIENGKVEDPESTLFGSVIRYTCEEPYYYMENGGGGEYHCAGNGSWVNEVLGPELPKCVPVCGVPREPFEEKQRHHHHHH
Nature of the assay: ELISA, plate coated with 200 ng/well HuC1s(NHC), OD450nm. How it is done:
as §1

In assay [3] the target is T3, full-length mouse C1s (produced in house) (mouse, UniProt Q8CG14 16-688).
T3 construct: Called full-length; also called MoC1s; moC1s
T3 sequence: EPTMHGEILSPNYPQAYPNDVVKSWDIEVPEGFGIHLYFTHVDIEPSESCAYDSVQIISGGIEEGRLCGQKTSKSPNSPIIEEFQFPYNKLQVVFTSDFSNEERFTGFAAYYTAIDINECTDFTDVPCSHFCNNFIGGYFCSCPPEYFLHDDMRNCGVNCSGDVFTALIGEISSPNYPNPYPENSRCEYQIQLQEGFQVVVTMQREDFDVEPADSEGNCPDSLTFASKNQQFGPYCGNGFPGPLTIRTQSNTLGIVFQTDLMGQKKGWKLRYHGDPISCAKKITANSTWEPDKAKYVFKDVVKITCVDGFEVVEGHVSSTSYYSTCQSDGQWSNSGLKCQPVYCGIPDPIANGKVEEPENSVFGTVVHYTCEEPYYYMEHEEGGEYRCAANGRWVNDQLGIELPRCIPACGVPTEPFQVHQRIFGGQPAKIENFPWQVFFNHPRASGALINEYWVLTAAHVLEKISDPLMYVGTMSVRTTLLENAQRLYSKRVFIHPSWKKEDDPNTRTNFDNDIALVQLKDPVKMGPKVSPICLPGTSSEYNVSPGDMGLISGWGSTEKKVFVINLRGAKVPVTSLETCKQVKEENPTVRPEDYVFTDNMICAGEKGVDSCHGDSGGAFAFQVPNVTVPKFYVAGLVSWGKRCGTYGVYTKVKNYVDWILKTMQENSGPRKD
Put plainly: ELISA, plate coated with 200 ng/well MoC1s, OD450nm. How it is done: The next morning, plates were blocked with SuperBlock T20 blocking buffer (Thermo Scientific 37536) for 1 h with gentle shaking. Then, various concentrations of anti-C1s antibodies diluted in SuperBlock T20 blocking buffer were added to the plates and incubated for 1 h with gentle shaking. Mouse IgG (Sigma-Aldrich I5381) and Human IgG1 (BioXCell BP0297) were used as negative controls. The plates were washed before incubating with HRP conjugated secondary antibodies diluted in SuperBlock T20 blocking buffer (goat anti-mouse IgG (H+L) cross-adsorbed secondary antibody HRP (Invitrogen G-21040) or goat anti-human IgG antibody, HRP conjugate (Millipore AP309P)) for 1 h with gentle shaking. At last, the plates were washed and color developed with ELISA liquid substrate (Sigma-Aldrich), followed by stopping the reaction with addition of the same volume of […] 1M H₂SO₄. Bound antibody was measured by absorbance at OD₄₅₀ₙₘ.

B1: Anti-C1s antibody 2-7 (antibody, human IgG1, kappa, V domains shown)
VH: EVKLEESGGGLVPPGGSMKLSCVASGFTFSNYFMNWVRQSPEKGLEWVAEIRLKFTNYATHYAESVEGRFTISRDDSKSSVYLQMNNLRAEDTGIYYCTRDYGSRNGYFDYWGQGTTLTVSS
VL: DIVMTQAAPSVPVTPGESVSISCRSSKSLLHSNGNTFLYWFLQRPGQSPQLLIYRMSNLASGVPDRFSGSGSGTAFTLRVSRVEAEDVGIYYCMQHLEYPYTFGGGTKLEIKT
notes: the HC/LC entries may hold it too; also called clone 2-7
With B1, the figures for the EC50 in assay [1] and in assay [2] were 6 ng/mL and 9 ng/mL, respectively. The binding result in assay [3] was “no binding (tested: 1000 ng/ml (Log 3))”.

B2: Anti-C1s antibody 2-8 (antibody, V domains shown)
VH: EVQLQQSGAELVRPGALVKLSCKASGFNIKEYYMHWVKQRPEQGLEWIGWIDPENGDTIYDPKFQGKASITADTSSNTAYLQLSSLTSEDTAVYYCARSRLFFAYWGQGTLVTVSA
VL: DIVMTQSHKFMSTSVGDRVSFTCKASQDVRTAVDWYQQKPGQSPKLLIYSASYRYTGVPDRFTGTGSGTDFTFTISSVQAEDLAVYFCQQQYTTPYTFGGGTKLEIKT
notes: the HC/LC entries may hold it too; also called clone 2-8
With B2, the EC50 in assay [1] was found to be 8 ng/mL; in assay [2] it was 12 ng/mL. In addition, in assay [3], the binding result is “no binding (tested: 1000 ng/ml (Log 3))”.

B3: Anti-C1s antibody hz2-7(H1L2) (antibody, V domains shown)
VH: EVQLLESGGGLVQPGGSLRLSCAASGFTFSNYFMNWVRQAPGKGLEWVSEIRLKFTNYATHYADSVKGRFTISRDDSKSTLYLQMNSLRAEDTAVYYCTRDYGSRNGYFDYWGQGTLVTVSS
VL: DIVMTQTPLSLPVTPGEPASISCRSSKSLLHSNGNTFLYWFLQKPGQSPQLLIYRMSNLASGVPDRFSGSGSGTDFTLKISRVEAEDVGVYYCMQHLEYPYTFGGGTKLEIKR
notes: Humanized, human IgG1 / kappa; also called hz2-7(1L2)
As to B3, the half-maximal effective concentration (EC50) in assay [1] was 5 ng/mL; in assay [2] it was 6 ng/mL. Besides, the binding result in assay [3] was “no binding (tested: 1000 ng/ml (Log 3))”.

B4: Anti-C1s antibody hz2-8 (H1L2 G80A/T82A) (antibody, V domains shown)
VH: QVQLVQSGAEVKKPGASVKVSCKASGFNIKEYYMHWVRQAPEQGLEWMGWIDPENADAIYAQKFQGRVTITADTSTNTAYMELSSLRSEDTAVYYCARSRLFFAYWGQGTLVTVSS
VL: DIQMTQSPKSLSASVGDRVTITCRASQDVRTALDWYQQKPGQSPKLLIYSASYRYSGVPSRFSGSGSGTDFTLTISSLQPEDFATYYCQQQYTTPYTFGQGTKLEIKR
notes: Humanized variant with G80A and T82A in HC CDR2 (already in the entry), human IgG1 / kappa
With B4, in assay [3], the binding result is listed as “no binding (tested: 1000 ng/ml (Log 3))”.
